From publication PMC8511952 come the findings set out here.

A word on the Kd: it is the concentration at which binding is half-saturated. A high value points to lower affinity.

Data set [1] relates to MBP-ERS2.5W WT (Homo sapiens). The data set is described as follows: fluorescence anisotropy. To be noted: unmodified in vitro transcript; FA: 5 nM labeled tRNA, 25 mM Tris-HCl pH 8, 50 mM NaCl, 1 mM MgCl2, room temperature, 30 min. For orientation: In fluorescence polarisation assays a small probe gives low polarisation when free and higher when bound to something large.
Data set [2] relates to MBP-ERSRC WT (Homo sapiens). The data set is described as follows: fluorescence anisotropy. As to conditions: unmodified in vitro transcript; FA: 5 nM labeled tRNA, 25 mM Tris-HCl pH 8, 50 mM NaCl, 1 mM MgCl2, room temperature, 30 min.

Take tRNAGlu(TTC): the Kd was 83.7 nM in data set [1] and 331 nM in data set [2].
